Where two headings read alike, the source gives them in different places.
Assays:
[1] = target: H3 hemagglutinin of H3N2 strain X-31 (influenza A virus X-31 (H3N2)) (UniProt P03437); test: cell-based or functional assay
[2] = target: H1 hemagglutinin (A/Puerto Rico/8/34) (influenza A virus A/Puerto Rico/8/34 (H1N1)) (UniProt P03452); test: cell-based or functional assay
[3] = target: H3 hemagglutinin (A/Wisconsin/67/2005) (influenza A virus A/Wisconsin/67/2005 (H3N2)); test: ELISA on coated HA, relative Kd (4-parameter fit)
[4] = target: H3 hemagglutinin (A/Brisbane/10/2007) (influenza A virus A/Brisbane/10/2007 (H3N2)); test: ELISA on coated HA, relative Kd (4-parameter fit)
[5] = target: H3 hemagglutinin (A/Wyoming/03/2003) (influenza A virus A/Wyoming/03/2003 (H3N2)); test: ELISA on coated HA, relative Kd (4-parameter fit)
[6] = target: H5 hemagglutinin (A/Vietnam/1203/2004) (influenza A virus A/Vietnam/1203/2004 (H5N1)); test: ELISA on coated HA, relative Kd (4-parameter fit)
[7] = target: H1 hemagglutinin (A/Solomon Islands/3/2006) (influenza A virus A/Solomon Islands/3/2006); test: ELISA on coated HA, relative Kd (4-parameter fit)
[8] = target: H3 hemagglutinin (A/New York/55/2004) (influenza A virus A/New York/55/2004 (H3N2)); test: ELISA on coated HA, relative Kd (4-parameter fit)
[9] = target: H7 hemagglutinin (A/Netherlands/219/2003) (influenza A virus A/Netherlands/219/2003 (H7N7)); test: ELISA on coated HA, relative Kd (4-parameter fit)
[10] = target: H9 hemagglutinin (A/Hong Kong/1073/99) (influenza A virus A/Hong Kong/1073/99 (H9)); test: ELISA on coated HA, relative Kd (4-parameter fit)
[11] = target: H3 hemagglutinin (A/Brisbane/10/2007) (influenza A virus A/Brisbane/10/2007 (H3N2))
[12] = target: H5 hemagglutinin (A/Vietnam/1203/2004) (influenza A virus A/Vietnam/1203/2004 (H5N1))
[13] = target: H7 hemagglutinin (A/Netherlands/219/2003) (influenza A virus A/Netherlands/219/2003 (H7N7))
[14] = target: H5 hemagglutinin (A/Vietnam/1203/2004) (influenza A virus A/Vietnam/1203/2004 (H5N1)); remark: listed apart in the source
[15] = target: H3 hemagglutinin (A/Wisconsin/67/2005) (influenza A virus A/Wisconsin/67/2005 (H3N2)); test: ELISA on coated HA
[16] = target: H3 hemagglutinin (A/Moscow/10/1999) (influenza A virus A/Moscow/10/1999 (H3)); test: ELISA on coated HA
[17] = target: H3 hemagglutinin (A/Brisbane/10/2007) (influenza A virus A/Brisbane/10/2007 (H3N2)); test: ELISA on coated HA
[18] = target: H9 hemagglutinin (A/Guinea fowl/HK/WF10/99) (influenza A virus A/Guinea fowl/HK/WF10/99 (H9)); test: ELISA on coated HA
[19] = target: H3 hemagglutinin (A/Wyoming/03/2003) (influenza A virus A/Wyoming/03/2003 (H3N2)); test: ELISA on coated HA
[20] = target: H2 hemagglutinin (A/chicken/PA/2004) (influenza A virus A/chicken/PA/2004 (H2)); test: ELISA on coated HA
[21] = target: H5 hemagglutinin (A/Vietnam/1203/2004) (influenza A virus A/Vietnam/1203/2004 (H5N1)); test: ELISA on coated HA
[22] = target: H3 hemagglutinin (A/Perth/16/2006) (influenza A virus A/Perth/16/2006 (H3)); test: ELISA on coated HA
[23] = target: H16 hemagglutinin (A/black headed gull/Mongolia/1756/2006) (influenza A virus A/black headed gull/Mongolia/1756/2006 (H16)); test: ELISA on coated HA
[24] = target: H3 hemagglutinin (A/Uruguay/716/2007) (influenza A virus A/Uruguay/716/2007 (H3)); test: ELISA on coated HA
[25] = target: H3 hemagglutinin (A/New York/55/2004) (influenza A virus A/New York/55/2004 (H3N2)); test: ELISA on coated HA
[26] = target: HA from influenza B (B/Wisconsin/1/2010) (influenza B virus B/Wisconsin/1/2010); test: ELISA on coated HA
[27] = target: H7 hemagglutinin (A/Netherlands/219/2003) (influenza A virus A/Netherlands/219/2003 (H7N7)); test: ELISA on coated HA
[28] = target: H9 hemagglutinin (A/Hong Kong/1073/99) (influenza A virus A/Hong Kong/1073/99 (H9)); test: ELISA on coated HA
[29] = target: H3 hemagglutinin (A/Brisbane/10/2007) (influenza A virus A/Brisbane/10/2007 (H3N2)); test: cell-based or functional assay
[30] = target: H3 hemagglutinin (A/Wyoming/03/2003) (influenza A virus A/Wyoming/03/2003 (H3N2)); test: cell-based or functional assay

B1: Ab 037 (antibody, V domains shown)
VH: EVQLLESGGGLVKPGQSLKLSCAASGFTFTSYAMHWVRQPPGKGLEWVAVVSYDGNYKYYADSVQGRFTISRDNSKNTLYLQMNSLRAEDTAVYYCAKDSRLRSLLYFEWLSQGYFNPWGQGTTLTVSS
VL: DIQMTQSPSSLSASVGDRVTITCRSSQSITFNYKNYLGWYQQKPGKAPKLLIYWGSYLESGVPSRFSGSGSGTDFTLTISSLQPEDFATYYCQQHYRTPPSFGQGTKVEIK
MIC [1]: 8 µg/mL | MIC [2]: 4 µg/mL | Kd [3]: 0.313 nM | Kd [4]: 0.087 nM | Kd [5]: 0.512 nM | Kd [6]: 0.059 nM | Kd [7]: 0.075 nM | Kd [8]: 0.14 nM | Kd [9]: 0.114 nM | Kd [10]: 0.075 nM

B2: Ab 038 (antibody, V domains shown)
VH: QVQLLETGGGLVKPGQSLKLSCAASGFTFTSYAMHWVRQPPGKGLEWVAVVSYDGNYKYYADSVQGRFTISRDNSKNTLYLQMNSLRAEDTAVYYCAKDSRLRSLLYFEWLSQGYFNPWGQGTTLTVSS
VL: DIQMTQSPSSLSASVGDRVTITCRSSQSITFNYKNYLGWYQQKPGKAPKLLIYWGSYLESGVPSRFSGSGSGTDFTLTISSLQPEDFATYYCQQHYRTPPSFGQGTKVEIK
MIC [1]: 4 µg/mL | MIC [2]: 2 µg/mL | Kd [3]: 0.199 nM | Kd [4]: < 0.025 nM | Kd [5]: 0.515 nM | Kd [6]: 0.087 nM | Kd [7]: 0.064 nM | Kd [8]: 0.102 nM | Kd [9]: 0.119 nM | Kd [10]: < 0.025 nM

B3: Ab 032 (antibody, V domains shown)
VH: QVQLLETGGGLVKPGQSLKLSCAASGFTFTSYAMHWVRQPPGKGLEWVAVVSYDGNYKYYADSVQGRFTISRDNSKNTLYLQMNSLRAEDTAVYYCAKDSRLRSLLYFEWLSQGYFNPWGQGTTLTVSS
VL: DIQMTQSPSSLSASVGDRVTITCRSSQSITFNYKNYLAWYQQKPGKAPKLLIYWGSYLESGVPSRFSGSGSGTDFTLTISSLQPEDFATYYCQQHYRTPPSFGQGTKVEIK
Kd [11]: 0.234 nM | koff [11]: 0.000376 s⁻¹ | kon [11]: 1.61e+06 M⁻¹ s⁻¹ | kon [12]: 988000 M⁻¹ s⁻¹ | Kd [13]: 0.145 nM | koff [13]: 0.000161 s⁻¹ | kon [13]: 1.13e+06 M⁻¹ s⁻¹ | koff [14]: < 5e-06 s⁻¹ | Kd [3]: 0.208 nM | Kd [4]: < 0.025 nM | Kd [5]: 0.262 nM | Kd [6]: < 0.025 nM | Kd [8]: 0.094 nM | Kd [9]: 0.106 nM | Kd [10]: 0.079 nM

B4: Ab 044 (antibody, V domains shown)
VH: QVQLLETGGGLVKPGQSLKLSCAASGFTFTSYAMHWVRQPPGKGLEWVAVVSYDGNYKYYADSVQGRFTISRDNSKNTLYLQMNSLRAEDTAVYYCAKDSRLRSLLYFEWLSQGYFNPWGQGTTLTVSS
VL: DIQMTQSPSSLSASVGDRVTITCRSSQSITFDYKNYLAWYQQKPGKAPKLLIYWGSYLESGVPSRFSGSGSGTDFTLTISSLQPEDFATYYCQQHYRTPPSFGQGTKVEIK
Kd [15]: < 0.5 nM | Kd [16]: < 0.5 nM | Kd [17]: < 0.5 nM | Kd [18]: < 0.5 nM | Kd [19]: < 0.5 nM | Kd [20]: < 0.5 nM | Kd [21]: < 0.5 nM | Kd [22]: < 0.5 nM | Kd [23]: < 0.5 nM | Kd [24]: < 0.5 nM | Kd [25]: < 0.5 nM | Kd [26]: < 0.5 nM | Kd [27]: < 0.5 nM | Kd [28]: < 0.5 nM | EC50, Neutral Red (CPE inhibition) [29]: 0.3 µg/mL | EC50, Neutral Red (CPE inhibition) [30]: 6.8 µg/mL

B5: Ab 004 (antibody, V domains shown)
VH: QVQLLETGGGLVKPGQSLKLSCAASGFTFTSYAMHWVRQPPGKGLEWVAVVSYDGNYKYYADSVQGRFTISRDNSKNTLYLQMNSLRAEDTAVYYCAKDSRLRSLLYFEWLSQGYFNPWGQGTTLTVSS
VL: DIVMTQSPDTLAVTLGERATIQCKSSQTVTFNYKNYLAWYQQKPGQPPKLLIYWASTRESGVPDRFSGSGSGTDFTLTITSLQAEDVAVYYCQQHYRTPPSFGQGTKLDIK
MIC [1]: 6 µg/mL | MIC [2]: 12 µg/mL | Kd [3]: 0.713 nM | Kd [4]: < 0.08 nM | Kd [5]: 0.272 nM | Kd [6]: 0.06 nM | Kd [7]: < 0.08 nM | Kd [8]: 0.066 nM | Kd [9]: 0.073 nM | Kd [10]: 0.06 nM

B6: Ab 031 (antibody, V domains shown)
VH: EVQLLESGGGLVKPGQSLKLSCAASGFTFTSYAMHWVRQPPGKGLEWVAVVSYDGNYKYYADSVQGRFTISRDNSKNTLYLQMNSLRAEDTAVYYCAKDSRLRSLLYFEWLSQGYFNPWGQGTTLTVSS
VL: DIQMTQSPSSLSASVGDRVTITCRSSQSITFNYKNYLAWYQQKPGKAPKLLIYWGSYLESGVPSRFSGSGSGTDFTLTISSLQPEDFATYYCQQHYRTPPSFGQGTKVEIK
MIC [1]: 20 µg/mL | MIC [2]: 1 µg/mL | Kd [3]: 0.253 nM | Kd [4]: 0.068 nM | Kd [5]: 0.331 nM | Kd [6]: < 0.025 nM | Kd [7]: < 0.025 nM | Kd [8]: 0.059 nM | Kd [9]: 0.091 nM | Kd [10]: < 0.025 nM

B7: Ab 005 (antibody, V domains shown)
VH: QVQLLETGGGLVKPGQSLKLSCAASGFTFTSYAMHWVRQPPGKGLEWVAVVSYDGNYKYYADSVQGRFTISRDNSKNTLYLQMNSLRAEDTAVYYCAKDSRLRSLLYFEWLSQGYFNPWGQGTTLTVSS
VL: DIVMTQSPDTVAVTVGERATINCKSSQTVTFNYKNYLAWYQQKPGQPPKLLIYWASTRESGVPDRFSGSGSGTDFTLTISSLQAEDVAVYYCQQHYRTPPSFGQGTKLDIK
MIC [1]: 10 µg/mL | MIC [2]: 10 µg/mL | Kd [3]: 1.09 nM | Kd [4]: 0.052 nM | Kd [5]: 0.311 nM | Kd [6]: 0.038 nM | Kd [7]: < 0.08 nM | Kd [8]: 0.065 nM | Kd [9]: 0.064 nM | Kd [10]: 0.035 nM
